Reference: the nanobody polyreactivity screen of Harvey et al. (2022)

Assay: yeast display, Sf9 membrane polyspecificity reagent, FACS + sequencing; frameworks hold sequencing errors
Summary of the method: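 Using colony PCR, genes from sorted yeast display clones were amplified, then sequenced on MiSeq at 2 × 250 and filtered by CDR length. The clones had been stained with 10% biotinylated, detergent-solubilized Sf9 membrane reagent for 1 hour at 4 °C and sorted by FACS into low and high (top ~1%) gates on anti-HA and streptavidin fluorescence. Polyreactivity labels come from the gate of origin.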

| Sequence | polyreactivity (PSR sort gate) |
| --- | --- |
| QVQLVESGGGLVQAGGSLRLSCAASGSIFYRYAMGWYRQAPGKERELVAAISTAGSTNYADSVKGRFTISRDNAKNTVYLQINSPKPEDTAVYYCAAKSYRGRTQRSYGYWGQGTQVTVSS | low polyreactivity |
| QVQLVESGGGLVQAGGSLRLSCAASGSIFYRYAMGWYRQAPGKERELVAGITRGGSTNYADSVKGRFTISRDNAKNTVYLQMNSLKPEDTAVYYCAARSYVYVHYYYWGQGTQVTVSS | high polyreactivity |
| QVQLVESGGGLVQAGGSLRLSCAASGSIFYRYAMGWYRQAPGKVRELVAAISSGSSTHYADSVKGRFTISRDNAKNTVYLQMNSLKPEDTAVYYCAARYRAYTSTRRFDYWGQGTQVTVSS | high polyreactivity |
| QVQLVESGGGLVQAGGSLRLSCAASGSIFYSNAMGWYRQAPGKERELVAAIRRSGGSTYYADSVKGRFTISRDNAKNTVYLQMNSLKPEDTEVYYCAARYSGTYSFYLSVGSRGYNYWGQGTQVTVSS | high polyreactivity |
| QVQLVESGGGLVQAGGSLRLSCAASGSIFYSNTMGWYRQAPGKERELVAAISRGGSTYYADSVKGRFTISRDNAKNTVYLQMNSLKPEDTAVYYCAARYRWAPAYDYWGQGTQVTVSS | high polyreactivity |
| QVQLVESGGGLVQAGGSLRLSCAASGSIFYSYAMGWYRQAHGKERELVAAITSGDITYYADSVKGRFTISRDNAKNTVYLQMNSLKPEDTAVYYCAAESYAWWDKQFLYRYDYWGQGTQVTVSS | low polyreactivity |
| QVQLVESGGGLVQAGGSLRLSCAASGSIFYSYAMGWYRQAPGKEREFVAAISQLGGSTYYADSVKGRFTISRDNAKNTVYLQMNSLKPEDTAVYSCNAVYRRAQFLYGYDYWGQGTQVTVSS | high polyreactivity |
| QVQLVESGGGLVQAGGSLRLSCAASGSIFYSYAMGWYRQAPGKERELVAAISWDASTYYADSVKGRFTISRDNAKNTVYLQMKSLKTEDTAVYYCNADIPYYFVFDAYDYWGQGTQVTVSS | low polyreactivity |
| QVQLVESGGGLVQAGGSLRLSCAASGSIFYSYAMGWYRQAPGKERELVAAITSNAGGITRYADSVKGRFTISRDNAKNTVYLQMNSLKPEDTAVYYCAARGHYYTRYWGQGTQVTVSS | high polyreactivity |
| QVQLVESGGGLVQAGGSLRLSCAASGSIFYSYAMGWYRQAPGKERELVADITITGSTYYADSVKGRFTISRDNAKNTVYLQMNSLKPEDTAVYYCTAVLAPGGYDYWGQGTQVTVSS | low polyreactivity |
| QVQLVESGGGLVQAGGSLRLSCAASGSIFYTNAMGWYRPAPGKERELVAAIRWSGGRTYYADSVKGRFTISRDNAKNTVYLQMNSLKPEDTAVYYCNVVVRYPSAYDYWGQGTQVTVSS | high polyreactivity |
| QVQLVESGGGLVQAGGSLRLSCAASGSIFYTNAMGWYRQAPGKEREFVAGITRRGTSTNYADSVKGRFTISRDKAKNTVYLQMNSQKPEDTAVYYCNARYYLYWGQGTQVTVSS | low polyreactivity |
| QVQLVESGGGLVQAGGSLRLSCAASGSIFYTNAMGWYRQAPGKERELVAVITASGGSTYYADSVKGRFTISRDNAKNTVYLQMNSLKPEDTSVYYCAADPVFNYDYWGQGTQVTVSS | low polyreactivity |
| QVQLVESGGGLVQAGGSLRLSCAASGSIFYTNVMGWYRQAPGKERELVAAISSRGGSTYYADSVKGRFTISRDNAKNTVYLQMNSLKPEDTAVYYCAARFLHYYPTRGYTYDYWGQGTQVTVSS | high polyreactivity |
| QVQLVESGGGLVQAGGSLRLSCAASGSIFYTYAMGWYRQAPWKEREFVAASTGTGVRTYYADSVKGRFTISRDNAKNTVYLPMNSLKPEDTAVYYCAAVSAYRWIGLTNYSTYGYWGQGTQVTVSS | high polyreactivity |
| QVQLVESGGGLVQAGGSLRLSCAASGSIFYVNAMGWYRQAPGKDRELVAAISVRGGRTYYADSVKGRFTISRDNAKNTVYLQLNSLKPEDTAVYYCATRISTVGRYDYWGQGTQVTVSS | high polyreactivity |

| Sequence | polyreactivity (PSR sort gate) |
| --- | --- |
| QVQLVESGGGLVQAGGSLRLSCAASGSIFYVYAMGWYRQAPGKERELVAAINTAGGSTFYADSVKGRFTISRDNAKNPVSLQMTSLKPEETAVYYCAAERYRYRSTDTMGYWGQGTQVTVSS | low polyreactivity |
| QVQLVESGGGLVQAGGSLRLSCAASGSIFYVYAMGWYRQAPGKERELVAAITNYADSVKGRFTISRDNAKNTVYLQMNSLKPEDTAVSYCAADWWRVEMDYWGQGTQVTVSS | low polyreactivity |
| QVQLVESGGGLVQAGGSLRLSCAASGSIFYVYAMGWYRQAPGKERELVADITTRDGDTYYADSVKGRFTISRDNAKNTVYLQMNSLKPVDTAVYYCAADLNAYPQRAYDYWGQGTQLTVSS | low polyreactivity |
| QVQLVESGGGLVQAGGSLRLSCAASGSIFYVYVMGWYRPAPGKERELVAGITSGGSTYYADSVKGRFTISRDNAKNTVYFQMNSLKPEDTAVYFCAADLYYWGDYDYWGQGSQVTVSS | low polyreactivity |
| QVQLVESGGGLVQAGGSLRLSCAASGSIFYVYVMGWYRQAPGKERELVAAIDTGGGDTYYADSVKGRFTISRDNAKNTVYLQMNSLKPEDTAVYYCSTSGPQYYSRNFDYWGQGTQVTVSS | low polyreactivity |
| QVQLVESGGGLVQAGGSLRLSCAASGSIFYWNVMGWYRQAPGKERELVAGISTSVGNTYYADSVKGRFTISRDNAKNTVYLQMNSLKPEDTAVYYCNVAGKQKPYYVTTRLDYWGQGTQVTVSS | high polyreactivity |
| QVQLVESGGGLVQAGGSLRLSCAASGSIFYWYAMGWYRQAPGKERELVAAISGSGGTTYYADSVKGRFTISRDNAKNTVYLQMNSLKPEDTAVYYCATRGWYLGSRGYRTRYGYWGQGTQVTVSS | high polyreactivity |
| QVQLVESGGGLVQAGGSLRLSCAASGSIFYWYAMGWYRQAPGKERELVAAISSGGSTNYADSVKGRFTISRDNAKNTVYLQMNSLKPEDTSVYYCNADIRSFYCEYYTGLDSWGQGTQVTVSS | low polyreactivity |
| QVQLVESGGGLVQAGGSLRLSCAASGSIFYWYAMGWYRQAPGKERELVAAITYSGDRTYYADSVKGRFTISRDNAKNTVYLQMNSLKPEDTAVYYCAKDRGSGPLDYWGQGTQVTVSS | low polyreactivity |
| QVQLVESGGGLVQAGGSLRLSCAASGSIFYYFALGWYRQAPGTERELVAAISRSGGRTYYADSVKGRFTISRDNAKNPVYLHMNSLKPEDTAFYYCNTDGYYTTAKYGYWGQGTQVTVSS | high polyreactivity |
| QVQLVESGGGLVQAGGSLRLSCAASGSIFYYNAKGWYTQAPGKERELVAVISYRSGRTSDADSVKGRFTISRDNAKNTVYLQMNSLKPEDTAVYYCATRDWWRYRHTGVIKFDYWGQGTQVSVSS | high polyreactivity |
| QVQLVESGGGLVQAGGSLRLSCAASGSIFYYNALGWYRQAPGKERELVAVISYRSGRTSYADSVKGRFTISRDNAKNTVYLQMNSLKPEDTAVYYCNAKPAVSFSRHYYRYDYWGQGTQVTVSS | high polyreactivity |
| QVQLVESGGGLVQAGGSLRLSCAASGSIFYYNAMGWYRQAPGKERELVAAISSDGGTYYADSVKGRFTISRDNAKNTVYLQMNSLKPEDTAVYYCNAEVFWWDQWYDYWGQGTQVTVSS | high polyreactivity |
| QVQLVESGGGLVQAGGSLRLSCAASGSIFYYNAMGWYRQAPGKERELVAVISYRSGRTSYADSVKGRFTISRDNAKNTVYLQMNSLKPEDTAVYYCIAKPAVSFSRHYYRYDYWGQGTQVTVSS | high polyreactivity |
| QVQLVESGGGLVQAGGSLRLSCAASGSIFYYNTMGWYRQAPGKAREFVADISVNGGSTYYADSVKGRFTISRDNAKNTVYLQMNSLKPEDSAVYYCAARRYQRPHGLYGYWGQGTQVTVSS | low polyreactivity |
